# Patent US20230348612A1 (BEIJING MABWORKS BIOTECH, published 2023)
# T1: CD20 on Raji cells (CD20+ tumor cells) (UniProt P11836 1-297, limits assumed)
# T1 construct: whole, on cells; also called CD20^+ Raji cells
# T1 sequence (looked up): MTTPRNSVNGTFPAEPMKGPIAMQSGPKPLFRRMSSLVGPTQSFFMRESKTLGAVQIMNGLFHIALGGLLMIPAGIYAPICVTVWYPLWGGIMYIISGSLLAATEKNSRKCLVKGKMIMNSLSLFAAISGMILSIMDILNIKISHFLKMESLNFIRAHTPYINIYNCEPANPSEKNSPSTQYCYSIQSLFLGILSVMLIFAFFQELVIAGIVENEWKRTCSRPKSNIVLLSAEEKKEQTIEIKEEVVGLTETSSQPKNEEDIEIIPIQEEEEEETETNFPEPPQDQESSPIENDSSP
# Biological target: T1, CD20 on Raji cells (CD20+ tumor cells)
# Assay: FACS on Raji cells
# Description: For the assay to test the MBS303 and MBS303m′ binding activity to Raji and Jurkat cells, 10⁵ Raji or Jurkat cells were plated on 96-well ELISA plates in 100 μ1 cell culture medium, and the ELISA plates were added with 50 μl serially diluted MBS303 and MBS303m, respectively. […] The ELISA plates were incubated 4° C. for 1 h, washed with PBS for three times, and subject to the BD flow cytometry system for FACS.
row,Binder,binding result
1,"MBS303 (anti-CD3/CD20 bispecific antibody, anti-CD20 scFv with wildtype light chain framework regions) (bispecific antibody, human IgG1, kappa, lambda, L234A L235A, N297A, Asymmetric; half antibodies MIL220 and MIL221-2 were expressed separately and assembled in vitro; also called MIL220 + MIL221-2) heavy 1: QVQLVQSGAEVKKPGSSVKVSCKASGYAFSYSWINWVRQAPGQGLEWMGRIFPGDGDTDYNGKFKGRVTITADKSTSTAYMELSSLRSEDTAVYYCARNVFDGYWLVYWGQGTLVTVSSASTKGPSVFPLAPSSKSTSGGTAALGCLVKDYFPEPVTVSWNSGALTSGVHTFPAVLQSSGLYSLSSVVTVPSSSLGTQTYICNVNHKPSNTKVDKKVEPKSCDKTHTCPPCPAPEAAGGPSVFLFPPKPKDTLMISRTPEVTCVVVDVSHEDPEVKFNWYVDGVEVHNAKTKPREEQYASTYRVVSVLTVLHQDWLNGKEYKCKVSNKALPAPIEKTISKAKGQPREPQVYTLPPSREEMTKNQVSLSCAVKGFYPSDIAVEWESNGQPENNYKTTPPVLDSDGSFFLVSKLTVDKSRWQQGNVFSCSVMHEALHNHYTQKSLSLSPGK light 1: DIVMTQTPLSLPVTPGEPASISCRSSKSLLHSNGITYLYWYLQKPGQSPQLLIYQMSNLVSGVPDRFSGSGSGTDFTLKISRVEAEDVGVYYCAQNLELPYTFGGGTKVEIKRTVAAPSVFIFPPSDEQLKSGTASVVCLLNNFYPREAKVQWKVDNALQSGNSQESVTEQDSKDSTYSLSSTLTLSKADYEKHKVYACEVTHQGLSSPVTKSFNRGEC heavy 2: QVQLVQSGAEVKKPGSSVKVSCKASGYAFSYSWINWVRQAPGQGLEWMGRIFPGDGDTDYNGKFKGRVTITADKSTSTAYMELSSLRSEDTAVYYCARNVFDGYWLVYWGQGTLVTVSSGGGGSGGGGSGGGGSDIVMTQTPLSLPVTPGEPASISCRSSKSLLHSNGITYLYWYLQKPGQSPQLLIYQMSNLVSGVPDRFSGSGSGTDFTLKISRVEAEDVGVYYCAQNLELPYTFGGGTKVEIKGGGGSGGGGSGGGGSEVQLLESGGGLVQPGGSLRLSCAASGFTFNTYAMNWVRQAPGKGLEWVARIRSKYNNYATYYAISVKDRFTISRDDSKNTLYLQMNSLRAEDTAMYYCVRHGNFGNSYLSYWAYWGQGTLVTVSSASTKGPSVFPLAPSSKSTSGGTAALGCLVKDYFPEPVTVSWNSGALTSGVHTFPAVLQSSGLYSLSSVVTVPSSSLGTQTYICNVNHKPSNTKVDKKVEPKSCDKTHTCPPCPAPEAAGGPSVFLFPPKPKDTLMISRTPEVTCVVVDVSHEDPEVKFNWYVDGVEVHNAKTKPREEQYASTYRVVSVLTVLHQDWLNGKEYKCKVSNKALPAPIEKTISKAKGQPREPQVYTLPPSREEMTKNQVSLWCLVKGFYPSDIAVEWESNGQPENNYKTTPPVLDSDGSFFLYSKLTVDKSRWQQGNVFSCSVMHEALHNHYTQKSLSLSPGK light 2: QAVVTQEPSLTVSPGGTVTLTCQSSTGAVTTNNYANWVQQKPGHAFRGLIGGTKQRAPGVPARFSGSLLGGKAALTLSGVQPEDEAEYYCVLWYSNLWVFGGGTKLTVLGQPKAAPSVTLFPPSSEELQANKATLVCLISDFYPGAVTVAWKADSSPVKAGVETTTPSKQSNNKYAASSYLSLTPEQWKSHRSYSCQVTHEGSTVEKTVAPTECS",binds
2,"MBS303m (with 83E, 100Q and 104-106LTA) (anti-CD3/CD20 bispecific antibody, anti-CD20 scFv with mutated light chain framework regions) (bispecific antibody, human IgG1, kappa, lambda, L234A L235A, N297A, also called MIL220 + MIL221-3 (with 83E, 100Q, 104-106LTA)) heavy 1: QVQLVQSGAEVKKPGSSVKVSCKASGYAFSYSWINWVRQAPGQGLEWMGRIFPGDGDTDYNGKFKGRVTITADKSTSTAYMELSSLRSEDTAVYYCARNVFDGYWLVYWGQGTLVTVSSASTKGPSVFPLAPSSKSTSGGTAALGCLVKDYFPEPVTVSWNSGALTSGVHTFPAVLQSSGLYSLSSVVTVPSSSLGTQTYICNVNHKPSNTKVDKKVEPKSCDKTHTCPPCPAPEAAGGPSVFLFPPKPKDTLMISRTPEVTCVVVDVSHEDPEVKFNWYVDGVEVHNAKTKPREEQYASTYRVVSVLTVLHQDWLNGKEYKCKVSNKALPAPIEKTISKAKGQPREPQVYTLPPSREEMTKNQVSLSCAVKGFYPSDIAVEWESNGQPENNYKTTPPVLDSDGSFFLVSKLTVDKSRWQQGNVFSCSVMHEALHNHYTQKSLSLSPGK light 1: DIVMTQTPLSLPVTPGEPASISCRSSKSLLHSNGITYLYWYLQKPGQSPQLLIYQMSNLVSGVPDRFSGSGSGTDFTLKISRVEAEDVGVYYCAQNLELPYTFGGGTKVEIKRTVAAPSVFIFPPSDEQLKSGTASVVCLLNNFYPREAKVQWKVDNALQSGNSQESVTEQDSKDSTYSLSSTLTLSKADYEKHKVYACEVTHQGLSSPVTKSFNRGEC heavy 2: QVQLVQSGAEVKKPGSSVKVSCKASGYAFSYSWINWVRQAPGQGLEWMGRIFPGDGDTDYNGKFKGRVTITADKSTSTAYMELSSLRSEDTAVYYCARNVFDGYWLVYWGQGTLVTVSSGGGGSGGGGSGGGGSGGGGSDIVMTQTPLSLPVTPGEPASISCRSSKSLLHSNGITYLYWYLQKPGQSPQLLIYQMSNLVSGVPDRFSGSGSGTDFTLKISRVEAEDEGVYYCAQNLELPYTFGQGTKLTAKGGGGSGGGGSGGGGSEVQLLESGGGLVQPGGSLRLSCAASGFTFNTYAMNWVRQAPGKGLEWVARIRSKYNNYATYYAISVKDRFTISRDDSKNTLYLQMNSLRAEDTAMYYCVRHGNFGNSYLSYWAYWGQGTLVTVSSASTKGPSVFPLAPSSKSTSGGTAALGCLVKDYFPEPVTVSWNSGALTSGVHTFPAVLQSSGLYSLSSVVTVPSSSLGTQTYICNVNHKPSNTKVDKKVEPKSCDKTHTCPPCPAPEAAGGPSVFLFPPKPKDTLMISRTPEVTCVVVDVSHEDPEVKFNWYVDGVEVHNAKTKPREEQYASTYRVVSVLTVLHQDWLNGKEYKCKVSNKALPAPIEKTISKAKGQPREPQVYTLPPSREEMTKNQVSLWCLVKGFYPSDIAVEWESNGQPENNYKTTPPVLDSDGSFFLYSKLTVDKSRWQQGNVFSCSVMHEALHNHYTQKSLSLSPGK light 2: QAVVTQEPSLTVSPGGTVTLTCQSSTGAVTTNNYANWVQQKPGHAFRGLIGGTKQRAPGVPARFSGSLLGGKAALTLSGVQPEDEAEYYCVLWYSNLWVFGGGTKLTVLGQPKAAPSVTLFPPSSEELQANKATLVCLISDFYPGAVTVAWKADSSPVKAGVETTTPSKQSNNKYAASSYLSLTPEQWKSHRSYSCQVTHEGSTVEKTVAPTECS",binds
